Non-standard residues stand in square brackets, D forms with d. No end group written: not given here. *: point of attachment. Acetyl(2-(4-imidazolyl)) = O=C(Cc1c[nH]cn1)*; Aib = CC(C)(N)C(=O)O
B1: oxyntomodulin derivative of SEQ ID NO. 17 (peptide)
peptide: HSQGTFTSDYSRYLDEEAVRLFIEWIRNTKRNRNNIA
modifications: not fully specified (residue 1, N-terminus); also: N-terminal CA (4-imidazoacetyl), whether it replaces His1 not given here
B2: oxyntomodulin derivative of SEQ ID NO. 11 (peptide)
peptide: HGEGTFTSDLSRQMEEEAVRLFIEWAAHSQGTFTSDYSRYLDK
modifications: not fully specified (residue 1, N-terminus); also: N-terminal CA (4-imidazoacetyl), whether it replaces His1 not given here

Tests used:
human glucagon receptor = human glucagon receptor (human, UniProt P47871); test: cell-based or functional assay
human GLP-1 receptor = human GLP-1 receptor (human, UniProt P43220); test: cell-based or functional assay

Row | Binder | EC50 (nM), cAMP, CHO/GCGR (human glucagon receptor) [nM] | EC50 (nM), cAMP, CHO/GLP-1R (human GLP-1 receptor) [nM]
1 | B1 | > 1000 | 
2 | H[Aib]QGTFTSDYSKYLDEKRAKEFVCWLMNT [oxyntomodulin derivative of SEQ ID NO. 23] | 5.8 | 2.46
3 | B2 | > 1000 | > 1000
4 | HSQGTFTSDYSRYLDEEAVELFIEWLMNTK [oxyntomodulin derivative of SEQ ID NO. 13] | > 1000 | > 1000
5 | H[Aib]QGTFTSDYSKYLDEKRAKEFVQWLMNTC (also: possible ring formation not assignable from text) [oxyntomodulin derivative of SEQ ID NO. 25] |  | 1.9
6 | H[Aib]QGTFTSDYSKYLDEKRAKEFVQWLMNTC (also: possible ring formation not assignable from text) [oxyntomodulin derivative of SEQ ID NO. 24] |  | 1.43
7 | H[Aib]QGTFTSDYSKYLDEKRAKEFVQWLMNT [oxyntomodulin derivative of SEQ ID NO. 28] | 0.3 | 
8 | Y[Aib]QGTFTSDYSKYLDEKRAKEFVQWLMNTC [oxyntomodulin derivative of SEQ ID NO. 31] | 1 | 12.5
9 | {Acetyl(2-(4-imidazolyl))}-HGEGTFTSDLSRQMEEEAVRLFIEWAAHSQGTFTSDYSKYLD [oxyntomodulin derivative of SEQ ID NO. 6] | > 1000 | 
10 | H[Aib]QGTFTSDYAKYLDEKRAKEFVQWLMNTC [oxyntomodulin derivative of SEQ ID NO. 30] | 80.2 | 2.2
